Test results published in EP1262190A1 (Takeda Chemical Industries, Ltd., dated 2001).
Where no end group is shown, it is not given here.

How the values were obtained:
human 0T7T022 receptor = human 0T7T022 receptor (human); assay: cell-based or functional assay
[1] = target: rat cerebellum-derived novel G protein-coupled receptor protein r0T7T022L (rat); assay: cell-based or functional assay

Chain of human 0T7T022 receptor (human) (Q9GZQ6 whole entry): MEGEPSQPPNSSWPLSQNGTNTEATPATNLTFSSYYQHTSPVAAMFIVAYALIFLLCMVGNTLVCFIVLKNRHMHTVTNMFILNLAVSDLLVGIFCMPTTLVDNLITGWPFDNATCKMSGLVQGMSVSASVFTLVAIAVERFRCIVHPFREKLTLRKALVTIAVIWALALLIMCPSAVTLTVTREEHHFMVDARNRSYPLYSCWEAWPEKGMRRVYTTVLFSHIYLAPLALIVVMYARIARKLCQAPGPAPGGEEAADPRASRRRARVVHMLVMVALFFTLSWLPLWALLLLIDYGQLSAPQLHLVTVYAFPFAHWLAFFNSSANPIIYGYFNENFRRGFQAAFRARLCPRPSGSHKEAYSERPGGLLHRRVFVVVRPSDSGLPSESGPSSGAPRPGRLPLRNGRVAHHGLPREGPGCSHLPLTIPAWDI

Row | Binder | ED50, inhibition of the cAMP level increased by forskolin (human 0T7T022 receptor) | IC50 of inhibiting the cAMP production (forskolin-stimulated) [1]
1 | LPLRF-NH2 [LPLRFamide (peptide shown by Leu-Pro-Leu-Arg-Phe-NH2)] | 36 nM | –
2 | MPHSFANLPLRF-NH2 [peptide MPHSFANLPLRFamide (Met-Pro-His-Ser-Phe-Ala-Asn-Leu-Pro-Leu-Arg-Phe-NH2)] | 4.5 nM | 0.5 nM
3 | NPFF [NPFF (peptide shown by Asn-Pro-Phe-Phe)] | 140 nM | –
4 | PQRF-NH2 [PQRFamide (peptide shown by Pro-Gln-Arg-Phe-NH2)] | ≥ 1000 nM | –
